Earlier results on one substance are cited in publication PMC12384831.

“And” between values parts separate entries of the source, which are not always exact repeats. Equal entries are not always repeated.

The Kd is the constant that tells how readily two partners part at equilibrium.

In the series the target is VISTA (Homo sapiens) (UniProt Q9H7M9).
Sequence of UniProt Q9H7M9 (Q9H7M9 33-194): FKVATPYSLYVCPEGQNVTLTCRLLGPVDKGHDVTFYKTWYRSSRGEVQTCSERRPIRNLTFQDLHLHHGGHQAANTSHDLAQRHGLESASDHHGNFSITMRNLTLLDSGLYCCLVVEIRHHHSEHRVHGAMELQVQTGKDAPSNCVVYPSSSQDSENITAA

For IGSF11 (from UniProt Q5DX21), the Kd was 20 nM and 80 nM.
